{"source": "paper PMC4242106", "about": "(Science translational medicine, 2010)", "type": "in vivo, human", "details": "mean of the five repeat experiments; subcutaneous; controller PK setting SLOW", "data": [{"substance": "Insulin lispro", "values": [{"measurement": "Inferred lispro PK t95%, Mean", "value": 8.9, "unit": "h"}, {"measurement": "Inferred lispro PK tmax, Mean", "value": 89, "unit": "min"}]}]}
